From IntAct's records for PubMed 29039417

B1: Protein PTHB1 (Homo sapiens), Q3SYG4 (parent)
chain: MSLFKARDWWSTILGDKEEFDQGCLCLANVDNSGNGQDKIIVGSFMGYLRIFSPHPAKTGDGAQAEDLLLEVDLRDPVLQVEVGKFVSGTEMLHLAVLHSRKLCVYSVSGTLGNVEHGNQCQMKLMYEHNLQRTACNMTYGSFGGVKGRDLICIQSMDGMLMVFEQESYAFGRFLPGFLLPGPLAYSSRTDSFLTVSSCQQVESYKYQVLAFATDADKRQETEQQKLGSGKRLVVDWTLNIGEQALDICIVSFNQSASSVFVLGERNFFCLKDNGQIRFMKKLDWSPSCFLPYCSVSEGTINTLIGNHNNMLHIYQDVTLKWATQLPHIPVAVRVGCLHDLKGVIVTLSDDGHLQCSYLGTDPSLFQAPNVQSRELNYDELDVEMKELQKIIKDVNKSQGVWPMTEREDDLNVSVVVSPNFDSVSQATDVEVGTDLVPSVTVKVTLQNRVILQKAKLSVYVQPPLELTCDQFTFEFMTPDLTRTVSFSVYLKRSYTPSELEGNAVVSYSRPTDRNPDGIPRVIQCKFRLPLKLICLPGQPSKTASHKITIDTNKSPVSLLSLFPGFASQSDDDQVNVMGFHFLGGARITVLASKTSQRYRIQSEQFEDLWLITNELILRLQEYFEKQGVKDFACSFSGSIPLQEYFELIDHHFELRINGEKLEELLSERAVQFRAIQRRLLARFKDKTPAPLQHLDTLLDGTYKQVIALADAVEENQGNLFQSFTRLKSATHLVILLIALWQKLSADQVAILEAAFLPLQEDTQELGWEETVDAAISHLLKTCLSKSSKEQALNLNSQLNIPKDTSQLKKHITLLCDRLSKGGRLCLSTDAAAPQTMVMPGGCTTIPESDLEERSVEQDSTELFTNHRHLTAETPRPEVSPLQGVSE
partner: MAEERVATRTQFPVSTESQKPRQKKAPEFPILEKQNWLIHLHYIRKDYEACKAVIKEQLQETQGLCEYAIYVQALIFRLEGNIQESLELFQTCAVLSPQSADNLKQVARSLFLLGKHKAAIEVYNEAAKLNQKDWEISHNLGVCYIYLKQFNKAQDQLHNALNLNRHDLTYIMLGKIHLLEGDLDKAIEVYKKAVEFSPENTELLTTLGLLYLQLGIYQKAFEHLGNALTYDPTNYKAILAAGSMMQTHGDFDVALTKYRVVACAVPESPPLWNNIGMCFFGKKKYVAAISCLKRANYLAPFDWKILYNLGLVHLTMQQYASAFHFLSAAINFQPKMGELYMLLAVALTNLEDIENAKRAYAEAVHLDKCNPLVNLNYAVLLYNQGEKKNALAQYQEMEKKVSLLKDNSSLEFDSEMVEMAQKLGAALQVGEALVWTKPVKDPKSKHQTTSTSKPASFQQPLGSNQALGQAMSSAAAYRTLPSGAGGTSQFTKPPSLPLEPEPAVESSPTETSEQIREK

Variants of: B1
Conditions: with bbs4_human BBS4, Q96RK4

| Variant | effect of a mutation on the interaction |
| --- | --- |
| R824K | with no effect |
| T482K | with no effect |
| R656E | with no effect |
| K456E | with no effect |
| T468K | with no effect |
| W741K | with no effect |
| N866A | with no effect |
| D804F | disrupting interaction strength |
| K743A | with no effect |
| K704A | with no effect |
| Q453E | with no effect |
| L736K | with no effect |
| L681K | with no effect |
| L681A | with no effect |
| Y599K | with no effect |
| V575A | with no effect |
| T865K | with no effect |
| E625K | with no effect |
| Q693A | disrupting interaction strength |
| F566E | with no effect |
| E887A | with no effect |
| A775E | with no effect |
| G585E | with no effect |
| D422K | with no effect |
| L851A | with no effect |
| Q677Y | disrupting interaction strength |

| Variant | effect of a mutation on the interaction |
| --- | --- |
| E848A | with no effect |
| D429K | with no effect |
| E663K | with no effect |
| V442E | with no effect |
| I657K | with no effect |
| C634E | with no effect |
| C634A | with no effect |
| D470E | with no effect |
| V450M | disrupting interaction strength |
| S558E | with no effect |
| Q705K | with no effect |
| S603E | with no effect |
| L491K | with no effect |
| L491E | with no effect |
| L411E | with no effect |
| K809A | with no effect |
| V671K | with no effect |
| V577E | with no effect |
| D817A | with no effect |
| R678H | disrupting interaction strength |
| R678A | with no effect |
| Q569R | disrupting interaction strength |
| I451K | with no effect |
| Q764A | with no effect |
| S667K | with no effect |
| P641K | with no effect |

| Variant | effect of a mutation on the interaction |
| --- | --- |
| P419A | with no effect |
| P419E | with no effect |
| V885E | with no effect |
| D573A | with no effect |
| E431A | with no effect |
| F673K | with no effect |
| P520A | with no effect |
| G518K | with no effect |
| V590K | with no effect |
| V772A | with no effect |
| A567K | with no effect |
| P840S | disrupting interaction strength |
| P840A | disrupting interaction strength |
| L752A | with no effect |
| D480E | with no effect |
| T552K | with no effect |
| H694Y | disrupting interaction strength |
| P537L | disrupting interaction strength |
| S439E | with no effect |
| V838K | disrupting interaction strength |
| E647K | disrupting interaction strength |
| L562A | with no effect |
| N796A | with no effect |
| N796K | with no effect |
| L559K | with no effect |
| L618K | with no effect |

| Variant | effect of a mutation on the interaction |
| --- | --- |
| L618A | with no effect |
| M578A | with no effect |
| T836A | with no effect |
| F653K | with no effect |
| F653A | with no effect |
| E406A | with no effect |
| C843A | with no effect |
| D631E | with no effect |
| D631K | with no effect |
| K492A | with no effect |
| K492E | with no effect |
| I738A | disrupting interaction strength |
| S545A | with no effect |
| R619K | with no effect |
| Q426K | with no effect |
| L744A | with no effect |
| D696E | with no effect |
| D696N | disrupting interaction strength |
| N719K | with no effect |
| I676K | with no effect |
| H651E | with no effect |
| H652E | with no effect |
| C535E | with no effect |
| T861K | with no effect |
| T861E | with no effect |
| P847K | with no effect |

| Variant | effect of a mutation on the interaction |
| --- | --- |
| L531A | with no effect |
| L727K | with no effect |
| N412K | with no effect |
| I588E | with no effect |
| P689K | with no effect |
| L481A | with no effect |
| P464E | with no effect |
| R669E | with no effect |
| R669A | with no effect |
| N448K | with no effect |
| N448E | with no effect |
| Y645A | with no effect |
| S425E | with no effect |
| T697E | with no effect |
| T697K | with no effect |
| L500E | with no effect |
| A675E | with no effect |
| L737A | with no effect |
| F580E | with no effect |
| P881E | with no effect |
| I601K | with no effect |
| L808E | with no effect |
| T512K | with no effect |
| E660A | with no effect |
| E660K | with no effect |
| P479E | with no effect |

| Variant | effect of a mutation on the interaction |
| --- | --- |
| N614E | with no effect |
| L529A | with no effect |
| Q798A | with no effect |
| N576A | with no effect |
| V734A | with no effect |
| V734K | with no effect |
| L699E | with no effect |
| T688K | with no effect |
| F421K | with no effect |
| Q539K | with no effect |
| Q539A | with no effect |
| L467A | with no effect |
| N800E | with no effect |
| S509A | with no effect |
| W768A | with no effect |
| T829K | with no effect |
| L655E | with no effect |
| T731I | disrupting interaction strength |
| F476E | with no effect |
| T496E | with no effect |
| A427K | with no effect |
| N658E | with no effect |
| F606K | with no effect |
| F606A | with no effect |
| V437K | with no effect |
| L611E | with no effect |

| Variant | effect of a mutation on the interaction |
| --- | --- |
| V444E | with no effect |
| V444K | with no effect |
| S788E | with no effect |
| Q605K | with no effect |
| R521E | with no effect |
| A754E | with no effect |
| Q597A | with no effect |
| G659E | with no effect |
| G659A | with no effect |
| G659D | disrupting interaction strength |
| T871E | with no effect |
| V879A | with no effect |
| F756K | with no effect |
| T702A | with no effect |
| T702C | disrupting interaction strength |
| H867E | with no effect |
| D650K | with no effect |
| K789E | with no effect |
| R483A | with no effect |
| V416A | with no effect |
| V416E | with no effect |
| L814K | with no effect |
| S849A | with no effect |
